The values below come from publication PMC6002036, “Characterization of a non-nudix pyrophosphatase points to interplay between flavin and NAD(H) homeostasis in Saccharomyces cerevisiae” (PLoS ONE, 2018).

Substrate in data set [1]: Cc1cc2nc3c(=O)[nH]c(=O)nc-3n(C[C@H](O)[C@H](O)[C@H](O)COP(=O)(O)OP(=O)(O)OC[C@H]3O[C@@H](n4cnc5c(N)ncnc54)[C@H](O)[C@@H]3O)c2cc1C
Description: HPLC fluorescence of FMN product, Michaelis-Menten fit. Type of data set: biochemical, Saccharomyces cerevisiae. Particulars: 4 mM CoCl2, 200 mM KCl, 100 mM Hepes-KOH pH 7.0, 30 °C. An excerpt:
HPLC fluorescence of FMN product, Michaelis-Menten fit on Fpy1p

Data set [2] concerns the molecule itself. Description: SEC; gel filtration on Superdex 200 10/300 in 50 mM potassium phosphate pH 7.5, 150 mM KCl, 100 mM L-arginine HCl, 0.1% Tween-20, 1 mM THP; calibrated with standards of 12.4-200 kDa; Fpy1p detected in fractions by enzymatic assay. On the technique in general: In gel filtration, larger molecules generally elute earlier.

B1: Fpy1p (protein encoded by YMR178w), recombinant with V5 epitope and 6xHis tag (enzyme, S. cerevisiae, UniProt Q03219 1-274, looked up)
chain: MVKVTAACIIIGDEVLNGKVVDTNSTFFAKYCFDHGIQLKEIATIGDDETQIVDTVRRLVKNYDFIISTGGIGPTHDDITYECMAKSFNLPCELDEECKERMRHKSDPEARLDADALKAHYQMATMPKGTNVKNYYVCDDLWVPICSISHKMYILPGIPQLFARMLKAFTPTLKKIYNLDKDPREYVRYFVRTHLTESQISKELKLIQDESTKVSEAIKIGSYPHFGMGFNTVSILGEKKDDSYLKSIVNRVVNNLEGEVISSELENKFSNQES
notes: Fpy1p, the pyrophosphatase encoded by ORF YMR178w of S. cerevisiae; whole open reading frame without the stop codon, amplified from the start codon; also called YMR178wp; source: S. cerevisiae strain Y258 (pYES-DEST52, galactose induction), purified (two-step IMAC: Cu2+ then Ni2+)
In the case of B1, in data set [1], the Km was 16.1 ± 2.1 µM, the kcat was 0.38 s⁻¹ and the kcat/Km was found to be 23000 M⁻¹ s⁻¹. Moreover, in data set [2], the “stoichiometry N” value stood at 3.

As a reminder, the Km is the substrate concentration at which the rate is half of its maximum. Broadly, the kcat is the maximal rate divided by the concentration of active sites. As a reminder, the kcat/Km is the turnover number divided by the Michaelis constant. The stoichiometry N is the number of molecules, sites or subunits per partner or assembly.
